Assay results reported in article PMC7079103.

What was measured:
Experiment in all cases: HRP-coupled steady-state kinetics
Assay type in all cases: biochemical, Phanerodontia chrysosporium
Conditions in all cases: apparent, 50 mM potassium phosphate pH 7.5, O2 as co-substrate
[1] = substrate: CCCCCC=O
[2] = substrate: CC(O)CCCO
[3] = substrate: OCCOCCO
[4] = substrate: CC1CCC(O)O1
[5] = substrate: OCCCCCO
[6] = substrate: CCCCCCO
[7] = substrate: OCCCCCCO

B1: alcohol oxidase from Phanerochaete chrysosporium (PcAOX; F101S-PcAOX = AOX*) (Phanerodontia chrysosporium; F101S) (protein)
chain: MGHPEEVDVIVCGGGPAGCVVAGRLAYADPTLKVMLIEGGANNRDDPWVYRPGIYVRNMQRNGINDKATFYTDTMASSYLRGRRSIVPCANILGGGSSINSQMYTRASASDWDDFKTEGWTCKDLLPLMKRLENYQKPCNNDTHGYDGPIAISNGGQIMPVAQDFLRAAHAIGVPYSDDIQDLTTAHGAEIWAKYINRHTGRRSDAATAYVHSVMDVQDNLFLRCNARVSRVLFDDNNKAVGVAYVPSRNRTHGGKLHETIVKARKMVVLSSGTLGTPQILERSGVGNGELLRQLGIKIVSDLPGVGEQYQDHYTTLSIYRVSNESITTDDFLRGVKDVQRELFTEWEVSPEKARLSSNAIDAGFKIRPTEEELKEMGPEFNELWNRYFKDKPDKPVMFGSIVAGAYADHTLLPPGKYITMFQYLEYPASRGKIHIKSQNPYVEPFFDSGFMNNKADFAPIRWSYKKTREVARRMDAFRGELTSHHPRFHPASPAACKDIDIETAKQIYPDGLTVGIHMGSWHQPSEPYKHDKVIEDIPYTEEDDKAIDDWVADHVETTWHSLGTCAMKPREQGGVVDKRLNVYGTQNLKCVDLSICPDNLGTNTYSSALLVGEKGADLIAEELGLKIKTPHAPVPHAPVPTGRPATQQVR
Km [1]: 0.20 mM | kcat [1]: 0.15 s⁻¹ | kcat/Km [1]: 750 M ^-1 s^-1 | Km [2]: 52.6 mM | kcat [2]: 1.28 s⁻¹ | kcat/Km [2]: 24.3 M ^-1 s^-1 | Km [3]: 12.3 mM | kcat [3]: 0.73 s⁻¹ | kcat/Km [3]: 59.3 M ^-1 s^-1 | Km [4]: 95.5 mM | kcat [4]: 1.13 s⁻¹ | kcat/Km [4]: 11.8 M ^-1 s^-1 | Km [5]: 69.6 mM | kcat [5]: 3.48 s⁻¹ | kcat/Km [5]: 50.0 M ^-1 s^-1 | Km [6]: 3.0 mM | kcat [6]: 0.56 s⁻¹ | kcat/Km [6]: 187 M ^-1 s^-1 | Km [7]: 12.9 mM | kcat [7]: 4.07 s⁻¹ | kcat/Km [7]: 316 M ^-1 s^-1
